Assay results reported in IntAct's records for PubMed 19644450.

What was measured:
SPAG9, O60271-2 [1] = target: SPAG9, O60271-2
SPAG9, O60271-2 [2] = target: SPAG9, O60271-2; remark: listed apart in the source

SPAG9, O60271-2, sequence (O60271 other isoform, or with tags, fused parts or gaps): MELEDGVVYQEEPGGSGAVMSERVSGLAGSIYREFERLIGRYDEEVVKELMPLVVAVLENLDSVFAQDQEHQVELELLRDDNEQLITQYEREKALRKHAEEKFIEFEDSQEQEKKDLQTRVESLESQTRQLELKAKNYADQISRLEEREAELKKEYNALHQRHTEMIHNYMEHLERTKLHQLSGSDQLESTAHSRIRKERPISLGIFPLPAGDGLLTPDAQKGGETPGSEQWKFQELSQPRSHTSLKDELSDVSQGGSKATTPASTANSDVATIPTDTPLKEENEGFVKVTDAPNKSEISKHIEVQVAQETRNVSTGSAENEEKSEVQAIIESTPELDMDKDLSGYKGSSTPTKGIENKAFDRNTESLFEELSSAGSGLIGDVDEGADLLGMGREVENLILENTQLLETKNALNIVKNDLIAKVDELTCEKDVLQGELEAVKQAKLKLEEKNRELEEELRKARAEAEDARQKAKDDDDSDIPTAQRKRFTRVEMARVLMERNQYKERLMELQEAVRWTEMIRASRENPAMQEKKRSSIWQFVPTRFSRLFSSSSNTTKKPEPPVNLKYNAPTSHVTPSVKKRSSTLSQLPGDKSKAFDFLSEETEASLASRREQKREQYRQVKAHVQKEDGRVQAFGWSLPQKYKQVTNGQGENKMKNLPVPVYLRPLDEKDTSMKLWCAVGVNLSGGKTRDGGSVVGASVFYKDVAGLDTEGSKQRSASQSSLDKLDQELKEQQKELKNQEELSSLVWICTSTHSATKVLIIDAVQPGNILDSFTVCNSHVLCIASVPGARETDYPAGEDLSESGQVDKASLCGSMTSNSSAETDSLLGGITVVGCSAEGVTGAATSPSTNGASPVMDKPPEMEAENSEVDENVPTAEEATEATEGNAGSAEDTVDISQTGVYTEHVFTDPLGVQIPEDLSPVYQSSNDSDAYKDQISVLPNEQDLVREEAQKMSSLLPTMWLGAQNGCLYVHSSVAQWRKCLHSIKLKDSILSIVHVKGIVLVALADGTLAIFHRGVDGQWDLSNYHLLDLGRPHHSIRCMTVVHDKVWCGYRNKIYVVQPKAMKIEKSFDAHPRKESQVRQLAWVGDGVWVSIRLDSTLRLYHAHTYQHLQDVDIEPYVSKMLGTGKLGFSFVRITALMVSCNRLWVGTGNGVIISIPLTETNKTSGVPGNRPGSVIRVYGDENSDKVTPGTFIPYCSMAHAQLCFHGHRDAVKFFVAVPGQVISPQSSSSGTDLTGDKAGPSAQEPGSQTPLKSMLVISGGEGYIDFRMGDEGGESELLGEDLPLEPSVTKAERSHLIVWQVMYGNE
ADP-ribosylation factor 1 (Homo sapiens), P84077 E57T, sequence (P84077 whole entry E57T): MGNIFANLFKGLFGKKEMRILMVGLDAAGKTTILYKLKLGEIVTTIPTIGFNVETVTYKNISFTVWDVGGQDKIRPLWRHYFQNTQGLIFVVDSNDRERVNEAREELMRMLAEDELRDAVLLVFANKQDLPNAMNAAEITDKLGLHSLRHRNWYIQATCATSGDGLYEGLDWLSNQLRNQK
ADP-ribosylation factor 1 (Homo sapiens), P84077 S62K, sequence (P84077 whole entry S62K): as the sequence (P84077 whole entry E57T) above, with T57E, S62K counted along it

Row | effect of a mutation on the interaction (SPAG9, O60271-2 [1]) | effect of a mutation on the interaction (SPAG9, O60271-2 [2]) | Substance
1 | increasing interaction |  | ADP-ribosylation factor 1 (Homo sapiens), P84077 Q83T
2 |  | increasing interaction | ADP-ribosylation factor 1 (Homo sapiens), P84077 S62K
3 |  | increasing interaction | ADP-ribosylation factor 1 (Homo sapiens), P84077 T64N
4 | increasing interaction |  | ADP-ribosylation factor 1 (Homo sapiens), P84077 E57T
